Results published in US20200355707A1.

What was measured:
[1] = target: prostate specific antigen (ABIN572980) (UniProt P07288); assay: in situ ellipsometry on rSAM-SA-anti-PSA sensor, buffer
[2] = target: prostate specific antigen (ABIN572980) (UniProt P07288); assay: ellipsometry; PSA layer formed on rSAM-SA-biotinylated anti-PSA
[3] = target: prostate specific antigen (ABIN572980) (UniProt P07288); assay: in situ ellipsometry; 100 pM antigen in borate buffer pH 8 on the antibody-modified rSAM
[4] = target: prostate specific antigen (ABIN572980) (UniProt P07288); assay: in situ ellipsometry, PSA from buffer media
[5] = target: prostate specific antigen (ABIN572980) (UniProt P07288); assay: in situ ellipsometry; PSA spiked into 200-fold diluted human serum
[6] = target: biotinylated anti-human-serum-albumin antibody; assay: ellipsometry; biotinylated anti-HSA (5 µM) layer on streptavidin-modified rSAM; binding through biotin
[7] = target: biotinylated prostate specific antigen antibody (ABIN 192197); assay: ellipsometry; biotinylated anti-PSA (5 µM) layer on streptavidin-modified rSAM; binding through biotin

| Substance | detection limit [1] [fM] | top layer thickness [2] [nm] | film thickness increase [3] [nm] | maximum surface coverage [4] [mg/m^2] | film thickness increase [5] [nm] | top layer thickness [6] [nm] | top layer thickness [7] [nm] |
| --- | --- | --- | --- | --- | --- | --- | --- |
| biotinylated prostate specific antigen antibody (ABIN 192197) | 40 | 4 | 4 | 2.4 | 4 |  |  |
| streptavidine (from UniProt P22629 37-163) |  |  |  |  |  | 3.4 | 4 |
